The text below walks through data of patent US10738094B2, “Peptides and combination of peptides for use in immunotherapy against ovarian cancer and other cancers” (immatics biotechnologies GmbH, priority 2015, dated 2020).

For the assay, the target named is HLA-A*02:01 (Homo sapiens, UniProt P04439, D140Y/D185E/D98H/E176V/E277Q/G131W/G231S/I119V/I121R/I166T/I218V/L300P/L318F/N151K/N90K/P208A/P217A/Q86G/Q94H/R138H/R169H/T345S). Description: MHC binding assay (UV-ligand exchange, beta2m ELISA). The settings on record: binding to HLA-A*02:01 ranged by peptide exchange yield (UV-ligand exchange, β2m ELISA). Summed up:
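UV-cleavable ligand in peptide-MHC complexes was exchanged for test peptide. Exchange yield came from an ELISA on streptavidin-captured complexes diluted 100 fold, detecting β2m with HRP anti-β2m (2 ug/ml, 1 h, 37° C.), TMB, A450.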
As to “476 (ALMERTGYSMV; listed as Homo sapiens) [compound 476]”, the Peptide exchange entry is recorded as ““+++” (≥50 = +++)”.

Consider “34 (ILVEADSLWVV; listed as Homo sapiens) [compound 34]”, for which the Peptide exchange result was ““+++” (≥50 = +++)”.

Regarding “209 (KLIESKHEV; listed as Homo sapiens) [compound 209]”, the Peptide exchange result was ““++” (≥20% = ++)”.

As to “63 (YLLPSGGSVTL; listed as Homo sapiens) [compound 63]”, the Peptide exchange result is given as ““++” (≥20% = ++)”.

As to “458 (SLIDKLYNI; listed as Homo sapiens) [compound 458]”, the Peptide exchange result is recorded as ““++” (≥20% = ++)”.

On to “578 (FLDPGGPMMKL; listed as Homo sapiens) [compound 578]”, for which the Peptide exchange entry is ““+++” (≥50 = +++)”.

For the substance “558 (GLLENIPRV; listed as Homo sapiens) [compound 558]”, the Peptide exchange result is on record as ““+++” (≥50 = +++)”.

For “426 (RLADKSVLV; listed as Homo sapiens) [compound 426]”, the Peptide exchange entry is listed as ““+++” (≥50 = +++)”.

As for “146 (SLATAGDGLIEL; listed as Homo sapiens) [compound 146]”, the Peptide exchange result is recorded as ““++” (≥20% = ++)”.

In the case of “386 (ILFRYPLTI; listed as Homo sapiens) [compound 386]”, the Peptide exchange entry is recorded as ““+++” (≥50 = +++)”.

On to “83 (ILAPTVMMI; listed as Homo sapiens) [compound 83]”, for which the Peptide exchange entry is on record as ““+++” (≥50 = +++)”.

In the case of “606 (ALWETEVYI; listed as Homo sapiens) [compound 606]”, the Peptide exchange result was ““+++” (≥50 = +++)”.

With “55 (SLLDLETLSL; listed as Homo sapiens) [compound 55]”, the Peptide exchange result is listed as ““++++” (≥75% = ++++)”.

For “273 (NLFQSVREV; listed as Homo sapiens) [compound 273]”, the Peptide exchange entry is given as ““++” (≥20% = ++)”.

With “607 (RLYSGISGLEL; listed as Homo sapiens) [compound 607]”, the Peptide exchange entry is ““+++” (≥50 = +++)”.

As to “249 (LLDGFLVNV; listed as Homo sapiens) [compound 249]”, the Peptide exchange entry is recorded as ““+++” (≥50 = +++)”.

As for “314 (ALIAEGIALV; listed as Homo sapiens) [compound 314]”, the Peptide exchange entry is ““+++” (≥50 = +++)”.

On to “131 (FVPPVTVFPSL; listed as Homo sapiens) [compound 131]”, for which the Peptide exchange entry is listed as ““++” (≥20% = ++)”.

With “320 (KMFEFVEPLL; listed as Homo sapiens) [compound 320]”, the Peptide exchange entry is on record as ““++++” (≥75% = ++++)”.

In the case of “80 (FLYDNLVESL; listed as Homo sapiens) [compound 80]”, the Peptide exchange result is given as ““++” (≥20% = ++)”.

On to “278 (QLLDVVLTI; listed as Homo sapiens) [compound 278]”, for which the Peptide exchange entry is reported as ““++” (≥20% = ++)”.

For “232 (ALLEAQDVELYL; listed as Homo sapiens) [compound 232]”, the Peptide exchange result is ““++” (≥20% = ++)”.

With “493 (GLLGEKTQDLIGV; listed as Homo sapiens) [compound 493]”, the Peptide exchange result was ““+++” (≥50 = +++)”.

For “242 (AIAYILQGV; listed as Homo sapiens) [compound 242]”, the Peptide exchange entry is reported as ““++” (≥20% = ++)”.

For the substance “529 (LLADELITV; listed as Homo sapiens) [compound 529]”, the Peptide exchange result is recorded as ““+++” (≥50 = +++)”.

As for “346 (LLDSKVPSV; listed as Homo sapiens) [compound 346]”, the Peptide exchange result is on record as ““+++” (≥50 = +++)”.

For “587 (VMNDRLYAI; listed as Homo sapiens) [compound 587]”, the Peptide exchange entry is ““+++” (≥50 = +++)”.

Consider “452 (ILLEHGADPNL; listed as Homo sapiens) [compound 452]”, for which the Peptide exchange entry is ““+++” (≥50 = +++)”.

“500 (SLMEDQVLQL; listed as Homo sapiens) [compound 500]”: the Peptide exchange result is listed as ““+++” (≥50 = +++)”.

Turning to “47 (ILLSVPLLVV; listed as Homo sapiens) [compound 47]”, the Peptide exchange result is on record as ““++” (≥20% = ++)”.

In the case of “205 (SLYPGTETMGL; listed as Homo sapiens) [compound 205]”, the Peptide exchange result is ““+++” (≥50 = +++)”.

Consider “219 (KLSDIGITV; listed as Homo sapiens) [compound 219]”, for which the Peptide exchange result is reported as ““+++” (≥50 = +++)”.

Take “24 (SLSDGLEEV; listed as Homo sapiens) [compound 24]”: the Peptide exchange entry was ““++” (≥20% = ++)”.

Take “1 (SLMEPPAVLLL; listed as Homo sapiens) [compound 1]”: the Peptide exchange entry is on record as ““+++” (≥50 = +++)”.

Take “178 (ALTEIAFVV; listed as Homo sapiens) [compound 178]”: the Peptide exchange result was ““++++” (≥75% = ++++)”.

In the case of “486 (AVMESIQGV; listed as Homo sapiens) [compound 486]”, the Peptide exchange result is ““+++” (≥50 = +++)”.

Consider “21 (VLDELDMEL; listed as Homo sapiens) [compound 21]”, for which the Peptide exchange entry is listed as ““++” (≥20% = ++)”.

As for “349 (SLTEYLQNV; listed as Homo sapiens) [compound 349]”, the Peptide exchange entry was ““++++” (≥75% = ++++)”.

Consider “428 (KLGHTDILVGV; listed as Homo sapiens) [compound 428]”, for which the Peptide exchange entry is listed as ““++” (≥20% = ++)”.

Consider “373 (SLLEDKGLAEV; listed as Homo sapiens) [compound 373]”, for which the Peptide exchange entry is given as ““++” (≥20% = ++)”.

Turning to “200 (LLFGSVQEV; listed as Homo sapiens) [compound 200]”, the Peptide exchange entry was ““+++” (≥50 = +++)”.

For “592 (RLLSAAENFL; listed as Homo sapiens) [compound 592]”, the Peptide exchange entry is recorded as ““+++” (≥50 = +++)”.

As for “439 (YLLQEIYGI; listed as Homo sapiens) [compound 439]”, the Peptide exchange entry is on record as ““+++” (≥50 = +++)”.

Consider “361 (ALYELEGTTV; listed as Homo sapiens) [compound 361]”, for which the Peptide exchange result was ““+++” (≥50 = +++)”.

Take “162 (YQQAQVPSV; listed as Homo sapiens) [compound 162]”: the Peptide exchange entry is listed as ““+++” (≥50 = +++)”.

As to “299 (YLLETSGNL; listed as Homo sapiens) [compound 299]”, the Peptide exchange result is ““+++” (≥50 = +++)”.

Regarding “214 (FLLDLDPLLL; listed as Homo sapiens) [compound 214]”, the Peptide exchange entry is reported as ““+++” (≥50 = +++)”.

With “288 (NLINEINGV; listed as Homo sapiens) [compound 288]”, the Peptide exchange entry is ““+++” (≥50 = +++)”.

For the substance “548 (ALWENPESGEL; listed as Homo sapiens) [compound 548]”, the Peptide exchange entry was ““++” (≥20% = ++)”.

For “100 (YLLSTNAQL; listed as Homo sapiens) [compound 100]”, the Peptide exchange entry was ““++++” (≥75% = ++++)”.

Regarding “5 (HLTEVYPEL; listed as Homo sapiens) [compound 5]”, the Peptide exchange entry is listed as ““+++” (≥50 = +++)”.

On to “18 (YLVAKLVEV; listed as Homo sapiens) [compound 18]”, for which the Peptide exchange result was ““++” (≥20% = ++)”.

As to “235 (YLNDLHEVLL; listed as Homo sapiens) [compound 235]”, the Peptide exchange result was ““++++” (≥75% = ++++)”.
